Assay results as given in patent US10487337B2, “Methods for monocot plant improvement” (Agresearch Limited, priority 2014, dated 2019).

What was measured:
[1] = biological target: T1, BZR1 (Arabidopsis thaliana, UniProt Q8S307); assay: Yeast two hybrid (Y2H) interaction with BZR1; assay type: binding
T1 construct: expressed in transfected cells; host or cells: yeast strain MaV203
T1 sequence (Q8S307 with tags, fused parts or gaps): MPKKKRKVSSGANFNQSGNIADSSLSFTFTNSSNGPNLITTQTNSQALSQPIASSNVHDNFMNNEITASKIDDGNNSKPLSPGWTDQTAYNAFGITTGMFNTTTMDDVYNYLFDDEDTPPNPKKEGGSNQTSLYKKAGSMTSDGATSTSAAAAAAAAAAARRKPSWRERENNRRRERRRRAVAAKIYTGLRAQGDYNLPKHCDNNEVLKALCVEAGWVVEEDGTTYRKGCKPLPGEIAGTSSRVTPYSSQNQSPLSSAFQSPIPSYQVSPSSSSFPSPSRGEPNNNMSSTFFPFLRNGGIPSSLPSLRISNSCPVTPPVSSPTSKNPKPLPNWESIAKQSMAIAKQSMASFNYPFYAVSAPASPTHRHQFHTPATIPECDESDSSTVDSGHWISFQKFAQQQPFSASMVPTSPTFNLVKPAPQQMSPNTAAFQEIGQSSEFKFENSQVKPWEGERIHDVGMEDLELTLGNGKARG
Excerpt: (§1) The constructs for Y2H and BiFC assays were generated as follows. Arabidopsis DNA sequences encoding the open reading frames for; At4g14713 (PPD1) and truncation and deletion derivatives of PPD1: PPD1; PPD1Δppd (N-terminal truncation of sequences encoding aa 1-61), PPD1Δtify, (internal deletion of sequences encoding aa 154-186), PPD1Δjas*(C-terminal truncation of sequences encoding aa 229-313) (FIG. 5), At4g28910 (NINJA), At1g15750 (TPL), At1g75080 (BZR1), a synthetic PUAS-35S promoter, and sequences encoding GAL4DBD and c-myc fusion proteins were synthesised and sequence verified by GeneArt. Most sequences were supplied as clones in pENTR221 ready for Gateway cloning into yeast and plant expression vectors. The exception, a promoter sequence for in planta transcription activation assays, incorporating 5′ Xho1 and 3′ Nco1 restriction enzyme sites, was supplied cloned in pMA-RQ. Plasmids for the transient LUC reporter assay: A synthetic promoter with 5×UAS GAL4 DNA binding sites upstream of a −105 bp CaMV35S promoter was cloned into the XhoI-NcoI sites within a dual luciferase construct pNWA62, which contains an intron-containing Firefly Luciferase gene (LUC) and 35Spro::Renilla Luciferase (REN) as an internal standard, to construct pAML7. […]

[2] = biological target: T2, NINJA (Arabidopsis thaliana, UniProt Q9SV55); assay: Yeast two hybrid (Y2H) interaction with NINJA; assay type: binding; conditions: Y2H screening, PPD1 as bait
T2 construct: expressed in transfected cells; host or cells: yeast strain MaV203
T2 sequence (Q9SV55 with tags, fused parts or gaps): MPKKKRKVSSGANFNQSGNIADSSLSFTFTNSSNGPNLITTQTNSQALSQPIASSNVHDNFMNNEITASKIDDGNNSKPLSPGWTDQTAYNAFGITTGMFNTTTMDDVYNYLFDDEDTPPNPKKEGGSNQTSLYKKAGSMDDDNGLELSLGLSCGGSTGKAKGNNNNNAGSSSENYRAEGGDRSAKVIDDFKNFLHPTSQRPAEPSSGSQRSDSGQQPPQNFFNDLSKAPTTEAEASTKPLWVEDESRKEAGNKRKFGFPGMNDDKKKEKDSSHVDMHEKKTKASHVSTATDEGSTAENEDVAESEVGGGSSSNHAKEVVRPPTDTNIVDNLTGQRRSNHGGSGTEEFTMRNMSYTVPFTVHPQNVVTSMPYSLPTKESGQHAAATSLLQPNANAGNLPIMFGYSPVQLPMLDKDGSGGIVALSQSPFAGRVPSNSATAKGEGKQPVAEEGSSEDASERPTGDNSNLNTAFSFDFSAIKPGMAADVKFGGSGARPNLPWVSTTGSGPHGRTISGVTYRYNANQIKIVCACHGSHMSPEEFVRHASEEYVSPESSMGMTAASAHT
Excerpt: as §1

B1: PPD1: PEAPOD 1 protein of Arabidopsis thaliana, SEQ ID NO: 1 (protein, listed as Arabidopsis thaliana)
chain: MDVGVSPAKSILAKPLKLLTEEDISQLTREDCRKFLKDKGMRRPSWNKSQAIQQVLSLKALYEPGDDSGAGIFRKILVSQPVNPPRVTTTLIEPSNELEACGRVSYPEDNGACHRMDSPRSAEFSGGSGHFVSEKDGHKTTISPRSPAETSELVGQMTIFYSGKVNVYDGIPPEKARSIMHFAANPIDLPENGIFASSRMISKLISKEKMMELPQKGLEKANSSRDSGMEGQANRKVSLQRYREKRKDRKFSKAKKCPGVASSSLEMFLNCQPRMKAAYSQNLGCTGSPLHSQSPESQTKSPNLSVDLNSEGI
interaction with BZR1 [1]: no direct interaction | interaction with NINJA [2]: direct interactor
